Data as given in IntAct's records for PubMed 23937259.

The substances below were run against pp1a_human PPP1CA (UniProt P62136).
Chain of pp1a_human PPP1CA (P62136 whole entry): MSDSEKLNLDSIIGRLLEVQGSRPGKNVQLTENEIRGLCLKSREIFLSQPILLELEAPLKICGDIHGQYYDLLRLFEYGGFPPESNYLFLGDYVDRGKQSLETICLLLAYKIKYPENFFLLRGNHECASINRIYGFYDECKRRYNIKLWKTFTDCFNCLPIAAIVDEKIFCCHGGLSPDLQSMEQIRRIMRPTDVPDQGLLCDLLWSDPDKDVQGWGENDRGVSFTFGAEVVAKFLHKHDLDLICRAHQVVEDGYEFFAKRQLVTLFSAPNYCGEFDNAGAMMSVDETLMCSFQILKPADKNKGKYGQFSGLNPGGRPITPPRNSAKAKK

Substance | effect of a mutation on the interaction
Leucine-rich repeat serine/threonine-protein kinase 2 (Homo sapiens), Q5S007 Y1699C | increasing interaction strength
Leucine-rich repeat serine/threonine-protein kinase 2 (Homo sapiens), Q5S007 R1441G | increasing interaction strength
Leucine-rich repeat serine/threonine-protein kinase 2 (Homo sapiens), Q5S007 S910A;S935A;S955A;S973A | increasing interaction strength
Leucine-rich repeat serine/threonine-protein kinase 2 (Homo sapiens), Q5S007 N1437H | increasing interaction strength
